Percentage of phage particles adsorbed after ten minutes data for one substance are collected here from paper PMC10399903.

Common to all, as to assay: phage adsorption assay; 10^6 pfu of χ phage added to 10 ml LB cultures of motile cells at OD600 2.0, shaken ten minutes at 37°C; cells pelleted at 15,000 x g and phage left in the supernatant titered by plaque assay; adsorption = (1 - pfu supernatant with cells/pfu control without cells) * 100%
Experiment [1] concerns the target ser. Typhimurium FliC with a deletion of D3 (strain FliC3) (Salmonella enterica serotype Typhimurium 14028s) (UniProt P06179).
The target of experiment [2] is ser. Enteritidis FliC with both D2 domains and D3 replaced by their ser. Typhimurium equivalents (strain FliC11) (Salmonella enterica serotype Enteritidis P125109 | Salmonella enterica serotype Typhimurium 14028s) (UniProt Q06972).
Experiment [3] has as its target ser. Typhimurium FliC with D3 replaced by D3 from ser. Enteritidis FliC (strain FliC6) (Salmonella enterica serotype Typhimurium 14028s | Salmonella enterica serotype Enteritidis P125109) (UniProt P06179).
Experiment [4] addresses wild type ser. Typhimurium FliC (strain FliC1) (Salmonella enterica serotype Typhimurium 14028s) (UniProt P06179).

As to Bacteriophage χ (Chi), the percentage of phage particles adsorbed after ten minutes in experiment [1] stood at 95%; in experiment [2], 48%; in experiment [3], 67%; in experiment [4] it was 99%.
